This passage reports binding signal results from article PMC5996148, “Data set on G4 DNA interactions with human proteins”.

For data set [1], the target named is T1, survival motor neuron domain containing 1 (human, UniProt O75940 1-238).
T1 sequence: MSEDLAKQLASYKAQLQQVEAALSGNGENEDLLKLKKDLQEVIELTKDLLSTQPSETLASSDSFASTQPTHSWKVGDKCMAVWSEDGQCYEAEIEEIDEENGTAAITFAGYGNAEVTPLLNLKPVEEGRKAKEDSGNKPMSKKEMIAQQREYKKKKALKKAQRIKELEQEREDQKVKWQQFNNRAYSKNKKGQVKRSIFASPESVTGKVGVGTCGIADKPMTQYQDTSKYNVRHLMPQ
Put plainly: protein microarray; 2.5 uM ON; 4.86 at 25 uM; Microarray: 20 mM Tris pH 7.5, 5 mM MgCl2, 100 mM KCl, 0.1% Tween-20, A/T-rich ON blocker mix; EMSA: 20 mM Tris-HCl pH 8, 100 mM KCl, 200 nM ON, 0-200 nM BRD3. The conditions noted are these: protein: commercial; label: biotin; intramolecular parallel G4. (A gel shift assay detects complexes by their altered migration in electrophoresis.)

Data set [2] addresses actin related protein 2/3 complex, subunit 1B, 41 kDa (human, UniProt O15143 1-372). The description is as above. Conditions: protein: commercial; label: biotin; intramolecular parallel G4.
Data set [3] deals with T2, ankyrin repeat and zinc finger domain containing 1 (human, UniProt Q9H8Y5 1-726).
T2 sequence: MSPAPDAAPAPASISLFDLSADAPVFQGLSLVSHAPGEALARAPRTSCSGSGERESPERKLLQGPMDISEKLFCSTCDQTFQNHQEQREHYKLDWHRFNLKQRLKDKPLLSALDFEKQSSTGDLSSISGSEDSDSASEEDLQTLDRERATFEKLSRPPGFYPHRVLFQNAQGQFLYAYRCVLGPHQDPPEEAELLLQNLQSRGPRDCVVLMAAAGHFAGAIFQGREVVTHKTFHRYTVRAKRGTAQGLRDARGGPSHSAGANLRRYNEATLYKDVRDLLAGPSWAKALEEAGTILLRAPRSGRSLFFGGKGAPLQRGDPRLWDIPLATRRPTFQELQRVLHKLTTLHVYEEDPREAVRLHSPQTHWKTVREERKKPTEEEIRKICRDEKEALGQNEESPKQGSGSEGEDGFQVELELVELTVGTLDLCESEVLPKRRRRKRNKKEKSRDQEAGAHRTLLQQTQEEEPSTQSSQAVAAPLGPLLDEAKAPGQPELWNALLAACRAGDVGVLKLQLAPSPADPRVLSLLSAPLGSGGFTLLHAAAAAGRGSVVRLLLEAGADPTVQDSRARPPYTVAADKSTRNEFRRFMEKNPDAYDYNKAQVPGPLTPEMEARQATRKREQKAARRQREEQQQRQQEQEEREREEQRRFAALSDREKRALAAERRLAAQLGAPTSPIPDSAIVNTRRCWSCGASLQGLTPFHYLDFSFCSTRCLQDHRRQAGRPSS
The description is as above. Conditions: protein: commercial; label: biotin; intramolecular parallel G4.

Data set [4] deals with T3, additional sex combs like 1 (human, UniProt Q6P1M8 1-84).
T3 sequence: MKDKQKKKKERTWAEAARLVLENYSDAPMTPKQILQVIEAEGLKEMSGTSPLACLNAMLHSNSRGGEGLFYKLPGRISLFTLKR
Described as above. The conditions noted are these: protein: commercial; label: biotin; intramolecular parallel G4.

Data set [5] addresses T4, GABA(A) receptor-associated protein (human, UniProt O95166 1-117). Described as above. Conditions: protein: commercial; label: biotin; intramolecular parallel G4.
Data set [6] concerns the target T5, LOC153684 protein (FLJ42001 fis, clone SPLEN2029912) (human, UniProt Q6ZVW3 1-145).
T5 sequence: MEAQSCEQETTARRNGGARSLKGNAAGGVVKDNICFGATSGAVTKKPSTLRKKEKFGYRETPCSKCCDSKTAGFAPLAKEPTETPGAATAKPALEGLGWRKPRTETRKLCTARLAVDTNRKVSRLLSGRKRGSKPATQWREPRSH
The description is as above. The conditions noted are these: protein: commercial; label: biotin; intramolecular parallel G4.

For data set [7], the target named is T6, chromosome 1 open reading frame 63 (human, UniProt Q9BUV0 1-290).
T6 sequence: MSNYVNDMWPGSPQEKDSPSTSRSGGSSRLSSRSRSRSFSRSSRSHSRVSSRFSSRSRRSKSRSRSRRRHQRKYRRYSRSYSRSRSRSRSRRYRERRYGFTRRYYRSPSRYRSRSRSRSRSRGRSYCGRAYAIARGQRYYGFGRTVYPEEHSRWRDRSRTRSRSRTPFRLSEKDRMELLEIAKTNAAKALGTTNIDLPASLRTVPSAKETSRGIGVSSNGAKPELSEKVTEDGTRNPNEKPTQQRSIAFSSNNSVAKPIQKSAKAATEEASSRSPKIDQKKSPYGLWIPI
The description is as above. Conditions: protein: commercial; label: biotin; intramolecular parallel G4.

For data set [8], the target named is peripheral myelin protein 2 (human, UniProt P02689 1-132). The data set is described as above. Conditions: protein: commercial; label: biotin; intramolecular parallel G4.
Sequence of peripheral myelin protein 2 (P02689 whole entry): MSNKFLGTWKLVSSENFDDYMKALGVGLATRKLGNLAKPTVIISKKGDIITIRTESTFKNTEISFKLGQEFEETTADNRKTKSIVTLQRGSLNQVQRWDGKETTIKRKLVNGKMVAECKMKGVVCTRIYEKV
The target of data set [9] is Cyclin-dependent kinase-like 3 (human, UniProt Q8IVW4-2 1-455). Described as above. The conditions noted are these: protein: commercial; label: biotin; intramolecular parallel G4.
Sequence of Cyclin-dependent kinase-like 3 (Q8IVW4 1-455): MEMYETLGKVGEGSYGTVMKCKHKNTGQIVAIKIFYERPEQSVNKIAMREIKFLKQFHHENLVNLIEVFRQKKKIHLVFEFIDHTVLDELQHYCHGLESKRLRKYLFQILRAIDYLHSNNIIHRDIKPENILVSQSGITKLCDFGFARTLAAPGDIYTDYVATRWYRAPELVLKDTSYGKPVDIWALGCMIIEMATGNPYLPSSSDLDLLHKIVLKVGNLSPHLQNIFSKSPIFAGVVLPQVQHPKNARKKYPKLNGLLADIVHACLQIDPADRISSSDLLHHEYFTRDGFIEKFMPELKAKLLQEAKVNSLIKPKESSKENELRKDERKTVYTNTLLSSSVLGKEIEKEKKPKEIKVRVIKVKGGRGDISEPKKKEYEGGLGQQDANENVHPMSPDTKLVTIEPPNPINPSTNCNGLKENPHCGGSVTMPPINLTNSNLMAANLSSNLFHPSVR
For data set [10], the target named is Coiled-coil domain-containing protein 28A (human, UniProt Q8IWP9 1-274). Put plainly: protein microarray; 2.5 uM ON; 4.85 at 25 uM; Microarray: 20 mM Tris pH 7.5, 5 mM MgCl2, 100 mM KCl, 0.1% Tween-20, A/T-rich ON blocker mix; EMSA: 20 mM Tris-HCl pH 8, 100 mM KCl, 200 nM ON, 0-200 nM BRD3. The conditions noted are these: protein: commercial; label: biotin; intramolecular parallel G4.
Sequence of Coiled-coil domain-containing protein 28A (Q8IWP9 whole entry, the tested form may be a part): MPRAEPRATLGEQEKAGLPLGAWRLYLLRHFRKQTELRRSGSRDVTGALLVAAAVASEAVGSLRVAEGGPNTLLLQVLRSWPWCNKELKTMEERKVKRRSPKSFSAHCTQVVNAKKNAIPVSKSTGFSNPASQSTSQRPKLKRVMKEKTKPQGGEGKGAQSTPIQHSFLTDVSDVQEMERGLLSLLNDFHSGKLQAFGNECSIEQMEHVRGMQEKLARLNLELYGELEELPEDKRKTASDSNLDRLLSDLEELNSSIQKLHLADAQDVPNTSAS

Data set [11] has as its target T7, hypothetical protein HSPC111 (human, UniProt Q9Y3C1 1-178).
T7 sequence: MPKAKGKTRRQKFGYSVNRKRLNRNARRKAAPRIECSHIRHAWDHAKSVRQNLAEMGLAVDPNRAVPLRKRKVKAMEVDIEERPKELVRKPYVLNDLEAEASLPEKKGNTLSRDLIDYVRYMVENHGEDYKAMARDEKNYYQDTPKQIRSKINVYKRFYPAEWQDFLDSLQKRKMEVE
Described as above. Conditions: protein: commercial; label: biotin; intramolecular parallel G4.

Data set [12] has as its target T8, bromodomain containing 3 (human, UniProt Q15059-2 1-556). The data set is described as above. Conditions: protein: commercial; label: biotin; intramolecular parallel G4.
For data set [13], the target named is peptidyl arginine deiminase, type IV (human, UniProt Q9UM07 1-663). Described as above. Conditions: protein: commercial; label: biotin; intramolecular parallel G4.
Sequence of peptidyl arginine deiminase, type IV (Q9UM07 whole entry): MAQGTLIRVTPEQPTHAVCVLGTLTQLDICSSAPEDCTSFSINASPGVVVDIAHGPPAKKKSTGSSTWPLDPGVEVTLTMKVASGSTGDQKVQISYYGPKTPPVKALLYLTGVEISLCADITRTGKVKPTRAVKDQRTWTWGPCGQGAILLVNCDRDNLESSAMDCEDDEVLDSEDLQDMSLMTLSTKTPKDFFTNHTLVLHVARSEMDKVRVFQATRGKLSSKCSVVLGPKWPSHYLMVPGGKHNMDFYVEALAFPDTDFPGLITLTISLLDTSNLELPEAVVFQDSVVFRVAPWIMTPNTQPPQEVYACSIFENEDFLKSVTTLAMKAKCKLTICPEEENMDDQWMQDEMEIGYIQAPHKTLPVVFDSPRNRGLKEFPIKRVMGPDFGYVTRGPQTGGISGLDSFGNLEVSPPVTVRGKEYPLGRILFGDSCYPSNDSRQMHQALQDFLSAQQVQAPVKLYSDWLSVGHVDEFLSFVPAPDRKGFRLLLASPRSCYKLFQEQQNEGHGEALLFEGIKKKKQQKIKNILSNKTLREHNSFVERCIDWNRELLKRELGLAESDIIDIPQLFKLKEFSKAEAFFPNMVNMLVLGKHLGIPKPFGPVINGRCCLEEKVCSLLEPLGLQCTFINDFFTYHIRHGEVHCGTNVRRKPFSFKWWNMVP
Data set [14] addresses T9, Peptidyl-tRNA hydrolase 2, mitochondrial (human, UniProt Q9Y3E5 1-179).
T9 sequence: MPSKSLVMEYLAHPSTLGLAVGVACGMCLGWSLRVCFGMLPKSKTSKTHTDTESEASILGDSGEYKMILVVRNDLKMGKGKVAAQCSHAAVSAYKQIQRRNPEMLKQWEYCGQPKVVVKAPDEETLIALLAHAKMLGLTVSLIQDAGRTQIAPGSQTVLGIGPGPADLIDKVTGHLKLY
Described as above. The conditions noted are these: protein: commercial; label: biotin; intramolecular parallel G4.

In data set [15] the target is T3, additional sex combs like 1. Put plainly: protein microarray; 2.5 uM ON; 6.47 at 25 uM; Microarray: 20 mM Tris pH 7.5, 5 mM MgCl2, 100 mM KCl, 0.1% Tween-20, A/T-rich ON blocker mix; EMSA: 20 mM Tris-HCl pH 8, 100 mM KCl, 200 nM ON, 0-200 nM BRD3. Conditions: protein: commercial; label: biotin; G4; mixed topology for unmodified strand, CD differs when biotinylated.

The target of data set [16] is T4, GABA(A) receptor-associated protein. Described as above. The conditions noted are these: protein: commercial; label: biotin; G4; mixed topology for unmodified strand, CD differs when biotinylated.
The target of data set [17] is T6, chromosome 1 open reading frame 63. Described as above. Conditions: protein: commercial; label: biotin; G4; mixed topology for unmodified strand, CD differs when biotinylated.
Data set [18] addresses T8, bromodomain containing 3. The data set is described as above. Conditions: protein: commercial; label: biotin; G4; mixed topology for unmodified strand, CD differs when biotinylated.

T8 sequence (Q15059 other isoform, or with tags, fused parts or gaps): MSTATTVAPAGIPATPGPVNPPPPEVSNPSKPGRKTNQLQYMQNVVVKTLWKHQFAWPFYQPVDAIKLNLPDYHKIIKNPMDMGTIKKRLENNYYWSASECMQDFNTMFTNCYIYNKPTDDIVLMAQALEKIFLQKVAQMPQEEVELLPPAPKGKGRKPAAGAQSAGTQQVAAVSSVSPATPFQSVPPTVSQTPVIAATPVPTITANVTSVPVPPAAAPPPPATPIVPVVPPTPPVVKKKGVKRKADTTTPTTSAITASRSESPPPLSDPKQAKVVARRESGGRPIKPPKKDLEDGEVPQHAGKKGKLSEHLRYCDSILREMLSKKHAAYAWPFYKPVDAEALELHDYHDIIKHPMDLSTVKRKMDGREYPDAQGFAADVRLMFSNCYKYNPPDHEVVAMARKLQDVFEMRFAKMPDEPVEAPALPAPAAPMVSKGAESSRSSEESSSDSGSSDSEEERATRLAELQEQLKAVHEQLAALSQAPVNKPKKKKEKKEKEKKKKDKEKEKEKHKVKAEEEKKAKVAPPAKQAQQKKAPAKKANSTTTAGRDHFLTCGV
T4 sequence (O95166 whole entry): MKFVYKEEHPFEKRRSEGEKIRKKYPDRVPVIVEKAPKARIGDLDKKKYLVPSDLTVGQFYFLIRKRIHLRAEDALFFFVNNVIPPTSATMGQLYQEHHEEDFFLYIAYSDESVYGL

As for GGTGACAGGGGTATGGGGAGGGG (structured_DNA, 3'-biotin) [G4-2 biotinylated (Ct1)], the binding signal in [1] was 6.4 Z-score; in [2], 6.19 Z-score; in data set [3], 6.68 Z-score; in data set [4], 6.79 Z-score; in [5], 6.62 Z-score; in data set [6] it was 6.45 Z-score. Besides, the binding signal in data set [7] is 6.17 Z-score; in data set [8], 6.73 Z-score; in data set [9], 6.29 Z-score; in data set [10] it was 6.78 Z-score; in data set [11], 6.78 Z-score; with bromodomain containing 3 [12], 6.79 Z-score. The results for the binding signal in data set [13] and in [14] were 6.78 Z-score and 3.46 Z-score, respectively.
In the case of GGGGACAGGGGTATGGGGAGGGG (structured_DNA, 3'-biotin) [G4-3 biotinylated (CtG)], the binding signal in data set [15] stood at 9.22 Z-score; in data set [16], 7.02 Z-score; in data set [17], 5.93 Z-score; with bromodomain containing 3 [18], 4.51 Z-score.
